# Assay results published in patent US6740739B1, “Substitutional variants of APO-2 ligand” (Genentech, Inc., priority 1998, dated 2004).
# Assays:
# Format in all cases: cell-based, human
# SW480 = test system: SW480
# Description: (§1) The following human tumor cell lines were assayed: A549 (lung carcinoma, ATCC CCL 185); HCT116 (colon carcinoma, ATCC CCL 247); SW480 (colon adenocarcinoma, ATCC CCL 228); MDA231 (breast adenocarcinoma, ATCC HTB 26); HeLa (cervical carcinoma, ATCC CCL 22); ME-180 (cervical carcinoma, ATCC HTB 33); T24 (bladder carcinoma. ATCC HTB 4); SK-N-AS (neuroblastoma, White et al., Proc. Natl. Acad. Sci., 92:5520-5524 (1995)). The cells were plated at 2.5×10^5 cells/ml in 96 well plates and incubated overnight. The cells were cultured in the presence of 2-fold dilutions of Apo-2 ligand (ranging from 100 ng/ml to 0.01 ng/ml). In some of the cultures, a chemotherapeuticagent was also added for 24 hours-cyclohexamide (“CHX”) (50 μg/ml; Sigma Chemicals), Doxorubicin (10-100 μg/ml; Pharmacia), or 5-FU (6 mg/ml; Roche). After 24 hours of incubation, the cells were stained with 0.5% crystal-violetin 20% methanol. Cell viability was determined by eluting the dye from the stained cells with 0.1M sodium citrate (0.1M citric acid in 50% methanol), and measuring absorbance at 540 nm.
# MDA231 = test system: MDA231
# Description: as §1
# A549 = test system: A549
# Description: as §1
# HCT116 = test system: HCT116
# Description: as §1
# 9D cells = test: Apoptosis by FACS (PI / FITC-annexin V); settings: Apo-2 ligand 3 μg/ml, 24 hours, control 22.5
# Description: Apoptotic activity of purified, soluble Apo-2 ligand (described in Example 3) was examined using several human lymphoid cell lines. In a first study, the effect of Apo-2 ligand on 9D cells (Genentech, Inc.), derived from Epstein-Barrvirus (EBV)-transformed human peripheral blood B cells, was examined. The 9D cells (5×10^4 cells/well in RPMI 1640 medium plus 10% fetal calf serum) were incubated for 24 hours with either a media control, Apo-2 ligand (3 μg/ml, prepared as described in Example 3 above), or anti-Apo-1 monoclonal antibody, CH11 (1 μg/ml) [described by Yonehara et al., J. Exp. Med., 169:1747-1756 (1989); commercially available from Medical and Biological Laboratories Co.]. […]
# The effects of the Apo-2 ligand on the 9D cells, as well as on Raji cells (human Burkitt's lymphoma B cell line, ATCC CCL 86) and Jurkat cells (human acute T cell leukemia cell line, ATCC TIB 152) were further analyzed by FACS. […]
# The 9D cells (FIG. 2B), Raji cells (FIG. 2C), and Jurkat cells (FIG. 2D) were incubated (1×10^6 cells/well) for 24 hours with a media control (left panels), Apo-2 ligand (3 μg/ml, prepared as described in Example 3) (center panels), or anti-Apo-1 ligand antibody, CH11 (1 μg/ml) (right panels). The cells were then washed, stained with PI and with fluorescein thiocyanate (FITC)-conjugatedannexin V (purchased from Brand Applications) and analyzed by flow cytometry. […]
# ME-180 = test: Cell viability by crystal violet staining
# Description: as §1
# T24 = test: Cell viability by crystal violet staining
# Description: as §1
molecule,measurement,setting,value
"Apo-2L: purified soluble His10-tagged human Apo-2 ligand, residues 114-281, from baculovirus-infected Sf9 cells (Example 3); used in Examples 4-14 (protein) MGHHHHHHHHHHSSGHIDDDDKHMVRERGPQRVAAHITGTRGRSNTLSSPNSKNEKALGRKINSWESSRSGHSFLSNLHLRNGELVIHEKGFYYIYSQTYFRFQEEIKENTKNDKQMVQYIYKYTSYPDPILLMKSARNSCWSKDAEYGLYSIYQGGIFELKENDRIFVSVTNEHLIDMDHEASFFGAFLVG",Apo-2L sensitivity ENHANCED BY 5-FU,SW480,yes
same,Apo-2L sensitivity ENHANCED BY Dox,"SW480; SW480, Doxorubicin 10-100 μg/ml, 24 hours",yes
same,Apo-2L sensitivity ENHANCED BY CHX,"SW480; SW480, cyclohexamide 50 μg/ml, 24 hours",yes
same,Apo-2L SENSITIVITY,"SW480; SW480 colon carcinoma, p53 mut, 24 h",++ (>70% death after 24 h with 100 ng/ml Apo-2L)
same,Apo-2L sensitivity ENHANCED BY 5-FU,MDA231,yes
same,Apo-2L sensitivity ENHANCED BY Dox,"MDA231; MDA231, Doxorubicin 10-100 μg/ml, 24 hours",yes
same,Apo-2L sensitivity ENHANCED BY CHX,"MDA231; MDA231, cyclohexamide 50 μg/ml, 24 hours",yes
same,Apo-2L SENSITIVITY,"MDA231; MDA231 breast carcinoma, p53 mut, 24 h",++ (>70% death after 24 h with 100 ng/ml Apo-2L)
same,Apo-2L sensitivity ENHANCED BY 5-FU,A549,yes
same,Apo-2L sensitivity ENHANCED BY Dox,"A549; A549, Doxorubicin 10-100 μg/ml, 24 hours",yes
same,Apo-2L sensitivity ENHANCED BY CHX,"A549; A549, cyclohexamide 50 μg/ml, 24 hours",yes
same,Apo-2L SENSITIVITY,"A549; A549 lung carcinoma, p53 WT, 24 h",++ (>70% death after 24 h with 100 ng/ml Apo-2L)
same,Apo-2L sensitivity ENHANCED BY 5-FU,HCT116,yes
same,Apo-2L sensitivity ENHANCED BY Dox,"HCT116; HCT116, Doxorubicin 10-100 μg/ml, 24 hours",yes
same,Apo-2L sensitivity ENHANCED BY CHX,"HCT116; HCT116, cyclohexamide 50 μg/ml, 24 hours",yes
same,Apo-2L SENSITIVITY,"HCT116; HCT116 colon carcinoma, p53 mut, 24 h",++ (>70% death after 24 h with 100 ng/ml Apo-2L)
same,% apoptotic cells,9D cells,92.4%
same,Apo-2L sensitivity ENHANCED BY Dox,"ME-180; ME180, Doxorubicin 10-100 μg/ml, 24 hours",yes
same,Apo-2L sensitivity ENHANCED BY CHX,"ME-180; ME180, cyclohexamide 50 μg/ml, 24 hours",yes
same,Apo-2L SENSITIVITY,"ME-180; ME180 cervical carcinoma, p53 WT, 24 h",++ (>70% death after 24 h with 100 ng/ml Apo-2L)
same,Apo-2L sensitivity ENHANCED BY Dox,"T24; T24, Doxorubicin 10-100 μg/ml, 24 hours",yes
same,Apo-2L sensitivity ENHANCED BY CHX,"T24; T24, cyclohexamide 50 μg/ml, 24 hours",yes
same,Apo-2L SENSITIVITY,"T24; T24 bladder carcinoma, p53 mut, 24 h",+++ (>70% death after 24 h with 10 ng/ml Apo-2L)
